Values belong to the binder of their own block, whether it stands above or below them.
Assays:
[1] = molecular target: T1, biotinylated recombinant human TNFRSF25-His tagged (Acro #TN5-H52H3) (human, UniProt Q93038 25-199, biotinylated); test: MSD plate binding; TNFRSF25 precoated, unpurified scFv supernatant in 2-fold serial dilutions, detection of the C-terminal myc tag
T1 construct: treated as the same protein; also called recombinant biotin-conjugated human TNFRSF25 protein; DR3
T1 sequence (looked up): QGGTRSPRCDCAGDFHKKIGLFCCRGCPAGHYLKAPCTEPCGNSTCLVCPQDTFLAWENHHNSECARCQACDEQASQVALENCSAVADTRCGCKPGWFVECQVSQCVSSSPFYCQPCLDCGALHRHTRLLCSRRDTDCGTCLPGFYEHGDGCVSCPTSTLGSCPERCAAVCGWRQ
Excerpt: (FIG. 2A) TNFRSF25 was precoated on MSD assay plates followed by adding scFv supernatant at 2-fold serial-dilutions followed by detection of the myc tag present on the C-terminus of the scFv's. (FIG. 2B) scFv supernatant were serially diluted and added to an MSD-plate pre-coated with TNFRSF25.

[2] = molecular target: FcγR1 (CD64), BLI reagent (UniProt P12314 16-288, limits assumed); test: BLI; antibody as analyte at 300 nM on FcγR1
Chain of FcγR1 (CD64), BLI reagent (P12314 16-288 limits assumed): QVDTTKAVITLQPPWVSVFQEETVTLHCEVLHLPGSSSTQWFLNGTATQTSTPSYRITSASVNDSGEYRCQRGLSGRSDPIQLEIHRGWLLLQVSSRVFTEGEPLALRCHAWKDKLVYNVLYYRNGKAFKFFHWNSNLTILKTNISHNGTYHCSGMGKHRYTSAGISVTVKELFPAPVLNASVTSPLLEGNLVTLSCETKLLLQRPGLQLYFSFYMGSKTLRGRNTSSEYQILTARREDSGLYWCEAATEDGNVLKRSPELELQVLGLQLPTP

[3] = molecular target: T2, biotinylated recombinant human FcRn-His tagged protein (Acro #FCM-H82W7) (human, UniProt P55899 24-297; P61769 21-119, biotinylated); test: BLI/Octet; biotinylated human FcRn-His on streptavidin biosensor; pH 7.4; pH 7.4
T2 construct: also called hFcRn; neonatal Fc receptor
Method: (§1) Figure 5D: FIG. 5D. FcRn binding kinetics by anti-TNFRSF25 antibodies. BLI assay was performed using the Octet Red 96e instrument. Streptavidin biosensors were loaded with biotinylated recombinant human(h) FcRn-His tagged protein (Acro #FCM-H82W7) as the ligand. During the association phase, biosensors were incubated with anti-DR3 candidate antibodies at various concentrations for 600 seconds, followed by a 600-second dissociation phase.
(§2) To detect binding of certain whole antibodies to the neonatal Fc receptor (FcRn) at neutral and acidic pH conditions, streptavidin biosensors were loaded with biotinylated recombinant human FcRn-His tagged protein (Acro #FCM-H82W7) as the ligand. During the association phase, biosensors were incubated with anti-TNFRSF25 antibodies at various concentrations for 600 seconds, followed by a 600 second dissociation phase.

[4] = molecular target: T2, biotinylated recombinant human FcRn-His …; test: BLI/Octet; biotinylated human FcRn-His on streptavidin biosensor; pH 7.4
Method: as §1, §2

[5] = molecular target: T2, biotinylated recombinant human FcRn-His …; test: BLI/Octet; biotinylated human FcRn-His on streptavidin biosensor; pH 6.0
Method: as §1, §2

[6] = molecular target: T1, biotinylated recombinant human …; test: BLI/Octet; biotinylated TNFRSF25 on streptavidin sensor, antibody in solution; 1:1 Langmuir model
[7] = molecular target: T1, biotinylated recombinant human …; test: MSD competition; TNFRSF25 on plate, antibody titrated, then TL1A-rabbit Fc 0.4 µg/ml as competitor
Method: Figure 6: FIG. 6. […] Human TNFRSF25 was precoated on MSD assay plates followed by incubating with various concentrations of anti-TNFRSF25 antibodies.

TNFR1 (recombinant) = molecular target: T3, TNFR1 (recombinant) (UniProt P19438 30-211, limits assumed); test: MSD plate binding; human TNFR1 protein immobilized on the plate, sulfo-tag anti-human Fc
T3 sequence (looked up): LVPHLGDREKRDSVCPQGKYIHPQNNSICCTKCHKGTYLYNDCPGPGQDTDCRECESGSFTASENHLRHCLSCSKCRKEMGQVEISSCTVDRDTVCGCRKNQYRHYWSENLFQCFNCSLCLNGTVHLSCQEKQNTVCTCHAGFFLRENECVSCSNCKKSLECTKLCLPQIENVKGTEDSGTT

[8] = molecular target: T1, biotinylated recombinant human …; test: BLI/Octet Red 96e; biotinylated TNFRSF25-His on streptavidin biosensor; 600 s association, 600 s dissociation
Method: Figure 4: FIG. 4. TNFRSF25 binding affinity of anti-TNFRSF25 antibodies. BLI assay was performed using the Octet Red 96e instrument. Streptavidin biosensors were loaded with biotinylated recombinant human TNFRSF25-His tagged (Acro #TN5-H52H3) as the ligand. During the association phase, biosensors were incubated with anti-TNFRSF25 antibodies at various concentrations for 600 seconds, followed by a 600-second dissociation phase.
as §2, with “human TNFRSF25,” for “the neonatal Fc receptor (FcRn) at neutral and acidic pH conditions,”, “TNFRSF25-His” for “FcRn-His”, “tagged” for “tagged protein”, “#TN5-H52H3)” for “#FCM-H82W7)”

TNFR2 (recombinant) = molecular target: T4, TNFR2 (recombinant) (UniProt P20333 23-257, limits assumed); test: MSD plate binding; human TNFR2 protein immobilized on the plate, sulfo-tag anti-human Fc
T4 sequence (looked up): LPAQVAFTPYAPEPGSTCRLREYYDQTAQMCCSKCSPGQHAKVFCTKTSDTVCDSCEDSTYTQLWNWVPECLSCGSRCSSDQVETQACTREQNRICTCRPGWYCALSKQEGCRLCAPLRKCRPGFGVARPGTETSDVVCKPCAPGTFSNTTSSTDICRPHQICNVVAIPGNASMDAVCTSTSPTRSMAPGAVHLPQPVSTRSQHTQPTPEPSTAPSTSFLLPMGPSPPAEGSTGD

[9] = molecular target: T1, biotinylated recombinant human …; test: BLI/Octet; biotinylated TNFRSF25 on streptavidin sensor, mAb in solution; 1:1 Langmuir model
Excerpt: Provided herein are monoclonal and biparatopic antibodies that specifically target human TNFRSF25. The monoclonal antibodies were produced in an engineered CHOK1 cell-line by transfecting the cells with vectors genetically encoding the Heavy and Light chain antibody sequences followed by a single-step affinity-capture chromatography using FcXL resins. The final monoclonal antibody preparation was buffer exchanged into PBS, pH 7.4. Production of biparatopic antibodies followed a two-step process. In the first step of the process, the so called Knob-half (or Hole-half) antibody was produced by transfecting an engineered CHOK1 cell-line with vectors genetically encoding the Knob (or the Hole) Heavy chain and the corresponding Light chain sequences. The CHOK1-cell-harvest from the Knob-half antibody and Hole half-antibody was then purified by Protein A column-based chromatography. In the second step of the process, the two half-antibodies were reassembled into the desired biparatopic format by the use of a mild reduction step followed by quenching the reaction with buffer exchange into PBS, pH 7.4. To detect binding of the antibodies to human TNFRSF25, recombinant biotin-conjugated human TNFRSF25 protein was immobilized onto a streptavidin-coated MSD (Meso Scale Discovery) plate and allowed to bind the anti-TNFRSF25 mAbs in solution. Following a washing step, the bound antibodies were detected using a sulfo-tagged anti-human Fc antibody. The results of these MSD assays are shown in arbitrary units (au) on the y-axis of FIG. 1. To determine the binding affinity of the antibodies to recombinant human TNFRSF25 protein, recombinant biotin-conjugated human TNFRSF25 protein was immobilized onto a streptavidin-coated BLI sensor and allowed to bind the anti-TNFRSF25 mAbs in solution phase. The binding affinity (K_D) was calculated using the on-rates (Ka) and off-rates (Kd) of mAb binding to the target using a 1:1 Langmuir binding model in the ForteBio data analysis software.

[10] = molecular target: T5, DcR3 (decoy receptor, recombinant) (UniProt O95407 30-300); test: MSD plate binding; human DcR3 protein immobilized on the plate, sulfo-tag anti-human Fc
T5 construct: also called decoy Receptor, DcR3
T5 sequence (looked up): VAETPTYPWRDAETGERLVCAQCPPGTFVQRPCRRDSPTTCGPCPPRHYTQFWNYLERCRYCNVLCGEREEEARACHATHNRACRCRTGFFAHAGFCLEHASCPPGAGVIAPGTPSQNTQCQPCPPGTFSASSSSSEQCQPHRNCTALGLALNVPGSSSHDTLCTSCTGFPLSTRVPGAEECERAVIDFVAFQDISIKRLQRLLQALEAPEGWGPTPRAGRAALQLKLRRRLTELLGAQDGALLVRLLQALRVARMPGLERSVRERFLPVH

- binding result [1]: binds
B1: NH24-162 (scFv, not shown: small tags and cut ends)
scFv: EVQLVESGGGSVQPGGSLRLSCAASGFTFSSYGMSWVRQAPGKGLEWISYISSSGGHTYYADSVKGQFTISRDNAKNSLYLQMNSLRAEDTAVYYCARGSGSFDYWGQGTLVTVSSGGRGSGGGGSGSGGSDIVMTQSPSSLSASVGDRVTITCQASQDISNYLSWYQQKPGKAPKLLISDASNLETGVPSRFSGSGSGTDFTFTISSLQPEDIATYYCQQYDNLPITFGQGTRLEIKR
notes: one of the four variants of group m25; used as unpurified E. coli supernatant; the sheet prints NH24-162; also called NH24-162 scFv

- binding result [2]: binds
- koff [3]: 0.00124 s⁻¹
- Kd [4]: 6.54 nM
- kon [4]: 190000 M⁻¹ s⁻¹
- Kd [5]: 3.93 nM
- koff [5]: 0.000715 s⁻¹
- kon [5]: 182000 M⁻¹ s⁻¹
B2: SL-062 (antibody, human IgG1, kappa)
heavy: not shown
light: AIQLTQSPSSLSASVGDRVTITCRASPGISSALAWYQQKPGKAPKLLMYDESSQESGVPSRFSGSGSGTDFTLTISSLQPEDFATYYCQQFNDYPLTFGGGTKVEIKRTVAAPSVFIFPPSDEQLKSGTASVVCLLNNFYPREAKVQWKVDNALQSGNSQESVTEQDSKDSTYSLSSTLTLSKADYEKHKVYACEVTHQGLSSPVTKSFNRGEC
notes: Same variable regions as SL-033 with wild-type IgG1 Fc; also called clone 062

- Kd [6]: 0.14 nM
B3: 033_NH24 biparatopic antibody (bispecific antibody, human IgG1, kappa, L234A L235A)
heavy 1: not shown
light 1: B2 light
heavy 2: EVQLVESGGGSVQPGGSLRLSCAASGFTFSSYGMSWIRQAPGKGLEWISYISSSGGHTYYADSVKGRFTISRDNAKNSLYLQMNSLRAEDTAVYYCARGSGSFDYWGQGTLVTVSSASTKGPSVFPLAPSSKSTSGGTAALGCLVKDYFPEPVTVSWNSGALTSGVHTFPAVLQSSGLYSLSSVVTVPSSSLGTQTYICNVNHKPSNTKVDKKVEPKSCDKTHTCPPCPAPEAAGGPSVFLFPPKPKDTLMISRTPEVTCVVVDVSHEDPEVKFNWYVDGVEVHNAKTKPREEQYNSTYRVVSVLTVLHQDWLNGKEYKCKVSNKALPAPIEKTISKAKGQPREPQVCTLPPSREEMTKNQVSLSCAVKGFYPSDIAVEWESNGQPENNYKTTPPVLDSDGSFFLVSKLTVDKSRWQQGNVFSCSVMHEALHNHYTQKSLSLSPGK
light 2: not shown

- IC50 [7]: 0.07 nM
- binding result [2]: binds
- Response (RU) [8]: 2.19 RU
- koff [8]: < 1e-07 s⁻¹
- kon [8]: 243000 M⁻¹ s⁻¹
- Kd [9]: < 1 nM
B4: SL-033 (antibody, human IgG1, kappa, L234A L235A)
heavy: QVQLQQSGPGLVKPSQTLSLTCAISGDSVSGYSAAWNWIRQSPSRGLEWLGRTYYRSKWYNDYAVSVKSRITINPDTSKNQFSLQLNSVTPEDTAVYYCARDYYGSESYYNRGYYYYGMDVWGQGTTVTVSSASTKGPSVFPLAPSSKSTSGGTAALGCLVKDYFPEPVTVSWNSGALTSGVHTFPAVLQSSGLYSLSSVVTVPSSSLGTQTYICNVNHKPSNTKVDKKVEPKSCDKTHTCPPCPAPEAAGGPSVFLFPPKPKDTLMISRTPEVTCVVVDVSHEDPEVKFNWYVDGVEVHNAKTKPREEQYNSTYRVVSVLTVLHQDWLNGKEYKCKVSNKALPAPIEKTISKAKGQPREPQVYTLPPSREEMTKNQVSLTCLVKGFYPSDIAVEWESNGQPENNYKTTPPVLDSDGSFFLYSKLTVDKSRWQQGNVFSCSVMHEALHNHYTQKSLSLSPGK
light: B2 light
notes: Anti-TNFRSF25 IgG1 with Fc-silencing L234A/L235A; also called clone 033; SL-033 (L234A/L235A)
- binding result (TNFR1 (recombinant)): no binding (tested: about 200 nM (log nM about 2.3))
- binding result (TNFR2 (recombinant)): no binding (tested: about 200 nM (log nM about 2.3))
- binding result [10]: no binding (tested: about 200 nM (log nM about 2.3))

Source: patent US12319742 (SHATTUCK LABS, dated 2025)
